Measurements as given in publication PMC11231100 (2024).

Assays:
[1] = target: T1, CD47 (human (endogenous in Jurkat and Reh), UniProt Q08722 19-323); assay: FACS; competition with SIRPα-mFc on Reh cells (CD38high/CD47+)
[2] = target: T1, CD47; assay: FACS; competition with SIRPα-mFc on Jurkat cells (CD38low/CD47+)

B1: IMM01 (SIRPα Fc fusion protein) (Fc fusion)
chain: EEELQVIQPDKSVLVAAGETATLRCTATSLIPVGPIQWFRGAGPGRELIYNQKEGHFPRVTTVSDLTKRNNMDFSIRIGNITPADAGTYYCVKFRKGSPDDVEFKSGAGTELSVRAKP
modifications: SIRPα IgV domain (SD1), limits by convention (complete V domain through its last strand, just before the first C1 domain); dimeric through an Fc that is left out; allelic variant and any engineered substitution not given
- IC50 [1]: 0.216 µg/mL
- IC50 [2]: 0.0977 µg/mL
